Experimental data from the supplement of paper PMC12764529.
± gives the half width of the 95% confidence interval.

Experiment: folding stability dG unfold from chymotrypsin proteolysis; higher = more stable
Outline: (§1)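 Designed mini-proteins (under 80 residues, no cysteine) in a PA-tagged cDNA display construct were digested with trypsin and chymotrypsin. Each protease was used at 11 concentrations (threefold dilutions) plus a no-protease condition, followed by sequencing. K50 was inferred by Bayesian fitting of sequencing counts, and unfolding free energy was derived against a sequence-predicted unfolded-state K50 and a shared folded-state K50, per protease or combined. Only designs with AlphaFold2 dimer inter-PAE above 15 were kept.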

Row | Sequence | folding stability dG unfold
1 | SAMKEAKIVSIEFDEETGTVTIEIEVPPGAKLKIRFLDTGEELEVEVKPGETITITVPKEPILIEIELESAG [r14_96_TrROS_Hall] | 4.09 ± 0.24 kcal/mol
2 | SAGGNIKIEDIEIMKPMKDPDGNPDKPMYMVSIRIEHEYKYPDGPMKHKHEIMIMMPPNDPDEALDELSAGG [r13_149_TrROS] | 0.758 ± 0.041 kcal/mol
3 | SAGGSAGGSMKVYRIKIEVDGKTYEIEVEMSEEEVKKLAEELGIKDVKIKKVEIEPVEEVEEKSAGGSAGGS [r12_292_TrROS_Hall] | 2.07 ± 0.1 kcal/mol
4 | SAGGSAGGSAGGSGMITVTIEREYTSYVTFPGGTLEPVLLKTTVTATLPPGVPVEEFLSSAGGSAGGSAGGS [r4_126_JUSTAS] | 1.37 ± 0.12 kcal/mol
5 | SSASAMAPLPVEVYTLTVTVVKPGGEEVGTYTFTFNSPEEAKAFLEAFAKEKGLTIKKATLTRTPDTSLSSA [r9_1226_JUSTAS] | 4.59 ± 0.054 kcal/mol
6 | SAGGSAGGPANKKYLLVADAEVDPETGTVKVTVEYPNGKKVEFTFPAKNFHPDEKVLVPVVVTDSAGGSAGG [r6_768_TrMRF] | 0.67 ± 0.17 kcal/mol
7 | SKTIEIEIRVGGELYRIKIKVKRKGEPEEEIELTVPAGMSIEEIAARLKELYPDLKVEIVEIERLPPPEPSA [r9_364_TrROS_Hall] | 4.17 ± 0.11 kcal/mol
8 | SAGGMIKPGEKVKVRAVLRVGEEEEEIELELPLPENATVEDIAQAILDLIPEEPRKDAEVDIEVEPVSAGGS [r16_321_TrMRF] | 1.21 ± 0.094 kcal/mol
9 | SAGGSAGGSAGGSLIVPAKDAVRFAEEWRRRFGGRFEIRGIPGIPFVPILVRPPDPAEFSAGGSAGGSAGGS [r4_419_TrMRF] | 0.703 ± 0.096 kcal/mol
10 | SAGGSAGGKPPKPPKKVTITVTITFTLEDGKTVTVTAKITFLPDGTIKIEITYPDGSKLTLTFPSAGGSAGG [r6_109_TrROS_Hall] | 4.81 ± 0.18 kcal/mol
11 | SAGGSSELEEAIEKARAEPGVLVERTVKLPDGRELKVEVDPKTGIVTLTETLPDGSTTTKEETYEPSAGGSA [r2_263_JUSTAS] | 1.26 ± 0.085 kcal/mol
12 | MLTLPDGRPAFVRARVVLPPGVRVTVVGDIPAEELERRLGRRVTPEDIVRAVVEAARRRGLTVEAVELDLRS [r1_338_TrMRF] | 1.02 ± 0.031 kcal/mol
13 | SAGGSAGGSAGGDTVEIELRAFFPETGLIITPTITIDKNGKIISINPRIEPLPPPLEGILSAGGSAGGSAGG [r7_135_TrMRF] | -0.253 ± 0.1 kcal/mol
14 | SAGGSAGGSAGKYAIVEVNGKPVLVEFEPLPDDKVKVKIVFPDGSKVEIELKANEPIYVGSAGGSAGGSAGG [r11_525_TrMRF] | 1.72 ± 0.076 kcal/mol
15 | SAGGSAKEIKVEITYDPETNTITIKVYKDGKLVAEMTMKIEVNGKLIEVKVTLYLDPKTKKLVVKPSAGGSA [r15_770_TrROS_Hall] | 3.3 ± 0.048 kcal/mol
16 | SAGGSAGGIWFMIKSAEDLKNLLNKWGWTIKDISVERWENDDGYVWIPIKIKPVPPPPPPEEDKSAGGSAGG [r6_981_TrROS] | 3.77 ± 0.061 kcal/mol
17 | SAGGMKIVSESTDPSVPTSYVTIEITDPKTGKKTTIKLPQDPAAGTGSPEALAKEVREKLKLPEGVELSAGG [r13_362_JUSTAS] | 1.01 ± 0.053 kcal/mol
18 | SAGGKVLVFYAPSPELIEKWAKELGLKLKKVSKEGDKFVAEFELPSGEKVLVVADEEAFKKLGIDPEKISAG [r5_12_TrMRF] | 4.09 ± 0.12 kcal/mol
19 | SAGGMTITVTKKTKPEDVEKLVEEIKEELEKKGYNVKKIEVTYKVVKDPNSSNEIVELTLTIEVEKPSAGGS [r8_475_JUSTAS] | 5.03 ± 0.21 kcal/mol
20 | SAGGSAGGSAKIKVLIKITNKDGKKKEILLEAETEEEALEAAKKLAEKEINGKKYKIEIKPLSAGGSAGGSA [r18_457_TrROS_Hall] | 2.08 ± 0.044 kcal/mol
21 | SAGGGTYYLIFKITETKTDPKTGKTTTSEKVIVDPLENPGSISAEEIAKLKEELEPKGYTVEIEIKPKSAGG [r13_926_JUSTAS] | 1.41 ± 0.27 kcal/mol

Experiment: folding stability dG unfold (combined trypsin and chymotrypsin); higher = more stable
Outline: as §1

Row | Sequence | folding stability dG unfold
22 | SAGGSKAKIVEAEIVEFDPEKGKITIRIKANGKTFEIEFPPGVKKIKLKVKLENGEEKEIEITIKPSAGGSA [r2_132_TrROS_Hall] | 2.59 ± 0.16 kcal/mol
23 | SAGGSAGGITPDDYFLIKLNAVVKLPNGDIVELKKDEVILAKADDVEILHADDIEIYPIGRDKLSAGGSAGG [r6_810_TrMRF] | -0.0393 ± 0.22 kcal/mol
24 | SAGGNWKIRNPKNGRTIEIDNFNPGNGMFRVKVWNPNGNKEEHPIPGSLEEILEFLQKKGWPVEIERSAGGS [r16_748_TrROS] | 0.626 ± 0.23 kcal/mol
25 | SMVEVLPDGTVVLAGELPPNVSIEEFLNSLPGLEIASVEFEPDPETGVTHFVFVVTPDGRVYVGSVPLGKSA [r9_238_TrMRF] | 2.25 ± 0.056 kcal/mol
26 | SAGGSAGGSAGGSMITLKIPPSKPEEAEKLAKSLGAELKSFDPNTGVVDINSPPGASLESAGGSAGGSAGGS [r4_3_JUSTAS] | -0.929 ± 0.23 kcal/mol
27 | SWKIEIPVLVKVDPGETMDEMKDQVVEIADMIAKYMQKQGGPIEVDVDVTPDPEEGYIFVTVEIEVPPGASA [r9_1161_TrROS] | 2.39 ± 0.29 kcal/mol
28 | SSGIAEIVAANPGVSLEELAKLIKEKLKAELPTDEPIEIKMTKSPDGYKITITIKDENNWHSDEYYVKPGSA [r9_805_JUSTAS] | 3.07 ± 0.19 kcal/mol
29 | SAGGKVVPKNVKLPVTKEAEELAKKLAPELGYKKAEVKVKSAVEGYVKVEIYFPETGKKVEITVPVGSAGGS [r16_281_TrMRF] | 0.739 ± 0.07 kcal/mol
30 | SAVTPISLPSETGTLYRTDTDVILVVLKDPDPSVYRIITLKKKSADIKPLDENILGELSPEEANNPELLSAG [r14_384_JUSTAS] | 0.742 ± 0.081 kcal/mol
31 | SAGGSAGGGMVKREIKVTVTRLPESDVWLVTVTTKIGDKWEIIPVPVAAPADLSAEELAKEVLESAGGSAGG [r6_21_JUSTAS] | 0.939 ± 0.11 kcal/mol
32 | SAGGSEITEEEAEKLKELFPNADITVEKVKPGETKTFPNGFRIEKTEDGYRVTVTLPNGEKLEFPVSAGGSA [r2_166_TrROS_Hall] | 1.33 ± 0.11 kcal/mol
33 | SAGGSAGGSAGGLKPGEKLVFKTETKTLKLKAKVFNKDTGEEFEVEVELTVTRIEVYPLSAGGSAGGSAGGS [r10_1116_TrROS_Hall] | 4.79 ± 0.33 kcal/mol
34 | SAGGSAGGSAMKEIKIELTYEDEEEAEKKAKEEKEKIKKELEEKGIKVEKITVEIHPPYHHSAGGSAGGSAG [r3_463_JUSTAS] | 0.796 ± 0.14 kcal/mol
35 | SAKDIEIEMERTNGYYQMTIKLPGKGYEISVWMPGDQYEISVQPPKNPDEVETIPFTVPEIKDALIDALSAG [r14_716_TrROS] | 1.18 ± 0.3 kcal/mol
36 | MLLVKAEFTIKNSDGTEETFTVLVEVPESEEEAEEAVEKEIEKIAEEKGLSTENITEIKVEIYPPSEPVKPS [r1_159_JUSTAS] | 2.48 ± 0.081 kcal/mol
37 | SAGLVVTKLPGDGTLRITLPPPGAPLVLTIPLDPGNGTLSVTVTRPDGRSETYTFPGGSIDEVIERLLSAGG [r19_159_JUSTAS] | 2.72 ± 0.093 kcal/mol
38 | SAGGSAGGMKELAEKLGWEYEEKEEKLPSGKKILIATFTSPDGSKVIITFDPSTNKIISEEVFESAGGSAGG [r6_982_JUSTAS] | 4.03 ± 0.25 kcal/mol
39 | SAGGKTVLVPVKSPEEAKIFIENFPESYDKVIVFNPETGTKAVFYIDPKTREVKEVKVEKFDLNDPNASAGG [r13_945_TrMRF] | 1.12 ± 0.066 kcal/mol
40 | SAGGSAGGLIEEILKEIGLSPEEVVKVEVEPIEEKENSLTVRVTAEFLLPDGSKKKIEAEFEIGSAGGSAGG [r6_774_TrMRF] | 1.21 ± 0.11 kcal/mol
41 | SIKIERDGDKIKITFKVPGPFRIMIFNNDEIQETTIPPGKPVKIEIDIPKGNFYIMIYFPGKPLAQIPFKSA [r9_411_TrROS] | 2.19 ± 0.31 kcal/mol
42 | SAGGSAGGMPIPPEVTEISFSKLPNGTYRLTITTKDGKTLTDVTFPPDLDPETAVEAAIATVAASAGGSAGG [r6_436_JUSTAS] | 1.5 ± 0.053 kcal/mol

Row | Sequence | folding stability dG unfold
43 | SAMKEAKIVSIEFDEETGTVTIEIEVPPGAKLKIRFLDTGEELEVEVKPGETITITVPKEPILIEIELESAG [r14_96_TrROS_Hall] | 3.79 ± 0.54 kcal/mol
44 | SAGGNIKIEDIEIMKPMKDPDGNPDKPMYMVSIRIEHEYKYPDGPMKHKHEIMIMMPPNDPDEALDELSAGG [r13_149_TrROS] | 0.877 ± 0.11 kcal/mol
45 | SAGGSAGGSMKVYRIKIEVDGKTYEIEVEMSEEEVKKLAEELGIKDVKIKKVEIEPVEEVEEKSAGGSAGGS [r12_292_TrROS_Hall] | 1.92 ± 0.21 kcal/mol
46 | SAGGSAGGSAGGSGMITVTIEREYTSYVTFPGGTLEPVLLKTTVTATLPPGVPVEEFLSSAGGSAGGSAGGS [r4_126_JUSTAS] | 1.54 ± 0.11 kcal/mol
47 | SSASAMAPLPVEVYTLTVTVVKPGGEEVGTYTFTFNSPEEAKAFLEAFAKEKGLTIKKATLTRTPDTSLSSA [r9_1226_JUSTAS] | 4.16 ± 0.1 kcal/mol
48 | SAGGSAGGPANKKYLLVADAEVDPETGTVKVTVEYPNGKKVEFTFPAKNFHPDEKVLVPVVVTDSAGGSAGG [r6_768_TrMRF] | 0.86 ± 0.1 kcal/mol
49 | SKTIEIEIRVGGELYRIKIKVKRKGEPEEEIELTVPAGMSIEEIAARLKELYPDLKVEIVEIERLPPPEPSA [r9_364_TrROS_Hall] | 3.86 ± 0.082 kcal/mol
50 | SAGGMIKPGEKVKVRAVLRVGEEEEEIELELPLPENATVEDIAQAILDLIPEEPRKDAEVDIEVEPVSAGGS [r16_321_TrMRF] | 0.93 ± 0.14 kcal/mol
51 | SAGGSAGGSAGGSLIVPAKDAVRFAEEWRRRFGGRFEIRGIPGIPFVPILVRPPDPAEFSAGGSAGGSAGGS [r4_419_TrMRF] | 0.491 ± 0.097 kcal/mol
52 | SAGGSAGGKPPKPPKKVTITVTITFTLEDGKTVTVTAKITFLPDGTIKIEITYPDGSKLTLTFPSAGGSAGG [r6_109_TrROS_Hall] | 4.59 ± 0.23 kcal/mol
53 | SAGGSSELEEAIEKARAEPGVLVERTVKLPDGRELKVEVDPKTGIVTLTETLPDGSTTTKEETYEPSAGGSA [r2_263_JUSTAS] | 1.11 ± 0.13 kcal/mol
54 | MLTLPDGRPAFVRARVVLPPGVRVTVVGDIPAEELERRLGRRVTPEDIVRAVVEAARRRGLTVEAVELDLRS [r1_338_TrMRF] | 1.09 ± 0.034 kcal/mol
55 | SAGGSAGGSAGGDTVEIELRAFFPETGLIITPTITIDKNGKIISINPRIEPLPPPLEGILSAGGSAGGSAGG [r7_135_TrMRF] | 0.0659 ± 0.23 kcal/mol
56 | SAGGSAGGSAGKYAIVEVNGKPVLVEFEPLPDDKVKVKIVFPDGSKVEIELKANEPIYVGSAGGSAGGSAGG [r11_525_TrMRF] | 1.83 ± 0.13 kcal/mol
57 | SAGGSAKEIKVEITYDPETNTITIKVYKDGKLVAEMTMKIEVNGKLIEVKVTLYLDPKTKKLVVKPSAGGSA [r15_770_TrROS_Hall] | 2.96 ± 0.13 kcal/mol
58 | SAGGSAGGIWFMIKSAEDLKNLLNKWGWTIKDISVERWENDDGYVWIPIKIKPVPPPPPPEEDKSAGGSAGG [r6_981_TrROS] | 3.06 ± 0.44 kcal/mol
59 | SAGGMKIVSESTDPSVPTSYVTIEITDPKTGKKTTIKLPQDPAAGTGSPEALAKEVREKLKLPEGVELSAGG [r13_362_JUSTAS] | 0.814 ± 0.073 kcal/mol
60 | SAGGKVLVFYAPSPELIEKWAKELGLKLKKVSKEGDKFVAEFELPSGEKVLVVADEEAFKKLGIDPEKISAG [r5_12_TrMRF] | 3.74 ± 0.18 kcal/mol
61 | SAGGMTITVTKKTKPEDVEKLVEEIKEELEKKGYNVKKIEVTYKVVKDPNSSNEIVELTLTIEVEKPSAGGS [r8_475_JUSTAS] | 5.28 ± 0.31 kcal/mol
62 | SAGGSAGGSAKIKVLIKITNKDGKKKEILLEAETEEEALEAAKKLAEKEINGKKYKIEIKPLSAGGSAGGSA [r18_457_TrROS_Hall] | 1.96 ± 0.11 kcal/mol
63 | SAGGGTYYLIFKITETKTDPKTGKTTTSEKVIVDPLENPGSISAEEIAKLKEELEPKGYTVEIEIKPKSAGG [r13_926_JUSTAS] | 1.07 ± 0.23 kcal/mol
